Experimental data: patent publication US20220411514A1, “ANTI-GAL3 ANTIBODIES AND METHODS OF USE FOR INSULIN RESISTANCE” (TrueBinding, Inc., priority 2021, published 2022)
One block for each molecule: values may come before it.

Key:
Human Gal3 peptides [1] = target: T1, Human Gal3 peptides (Homo sapiens, UniProt P17931); assay: Gal3 peptide binding ELISA (Example 8); conditions: antibody 5 μg/mL
T1 construct: purchased LifeTein custom order
Protocol: (§1) Gal3 peptide binding activity of additional exemplary anti-Gal3 antibodies was assessed with the same peptides as described in FIG. 18 (SEQ ID NOs: 3-26). Human Gal3 peptides (LifeTein, custom order) and human Gal3 proteins (R&D Systems, 8259-GA; TrueBinding, QCB200349) were diluted in PBS (Corning, 21-030-CM) to concentrations of at least 100 μg/mL (peptides) or 1 μg/mL (proteins), and added to the wells of several 96-well ELISA plates (Thermo Fisher, 44-2404-21). After incubating the plates at 4° C. overnight, the plates were washed three times with PBST (PBS with 0.05% Tween 20 [VWR, 0777]). The plates were then blocked for an hour with 2% BSA (EMD Millipore, 126609) in PBST at room temperature with gentle rocking. Thereafter, the 2% BSA in PBST was discarded and Gal3-binding antibodies (reformatted hIgG4 [S228P]) were diluted in 2% BSA in PBST to concentrations of 5 μg/mL and added to the wells. The plates were incubated for an hour at room temperature with gentle rocking and then washed three times with PBST. Afterwards, Peroxidase AffiniPure F(ab′)2 Fragment Goat Anti-Human IgG (H+L) polyclonal antibody (Jackson ImmunoResearch, 109-036-003), was diluted in 2% BSA in PBST (1:4000) and added to the wells. The plates were incubated for 1 hour at room temperature with gentle rocking and then washed three times with PBST. TMB substrate (Thermo Scientific, 34029) was then added to each well. The reaction was stopped with 1M HCl (JT Baker, 5620-02) and read using a plate reader (Molecular Devices) at absorbance of 450 nm.

hGal3 peptide = target: T2, hGal3 peptide (Homo sapiens, UniProt P17931); assay: Gal3 peptide library binding ELISA (Example 2)
T2 construct: a library of 24 amino acid peptides representing portions of Gal3
Protocol: To identify the epitopes to which Gal3 antibodies with and without Gal3-INSR blocking activity bound, a library of 24 amino acid peptides representing portions of Gal3, depicted in FIG. 18, was produced and the ability of each peptide to bind Gal3 antibodies was evaluated by ELISA. At least 2 μg/ml of hGal3 peptide in 50 μl of PBS or 0.1 μg/ml of full-length human Gal3 protein (GenScript) and human Galectin-3 protein (Acro Biosystems, GA3-H5129) were diluted in PBS (Corning, 21-030-CM) to concentrations of at least 2 μg/ml or 0.1 μg/ml, respectively, and added to the wells of a 96-well ELISA plate (Thermo Fisher, 44-2404-21). After incubating the plate at 4° C. overnight, the plate was washed three times with PBST (PBS with 0.05% Tween 20 [VWR, 0777]). The plate was then blocked for an hour with 2% BSA (EMD Millipore, 126609) in PBST at room temperature with gentle rocking. Thereafter, the 2% BSA in PBST was discarded and human Galectin-3 hybridoma supernatants or antibodies were diluted in 2% BSA in PBST to concentrations of at least 0.1 μg/ml and added to the wells. The plate was incubated for an hour at room temperature with gentle rocking and then washed three times with PBST. Afterwards, Goat Anti-Mouse IgG-HRP (Jackson ImmunoResearch, 115-036-1461) or Goat Anti-Rat IgG HRP (Abcam, ab205720) diluted in 2% BSA in PBST (1:4000) were added to the wells. The plate was incubated for 30 minutes to 1 hour at room temperature with gentle rocking and then washed three times with PBST. TMB substrate (Thermo Scientific, 34029) was then added to each well. The reaction was stopped with 1M HCl (JT Baker, 5620-02) and read using a plate reader (Molecular Devices) at absorbance of 450 nm.

Human Gal3 peptides [2] = assay: Gal3 peptide binding ELISA (Example 8); conditions: antibody 5 μg/mL
Protocol: as §1

human Gal3 = target: T3, human Gal3 (Homo sapiens, UniProt P17931); assay: Epitope binning, sandwich format, SPR Carterra LSA (Example 8); format: binding
T3 construct: 6xHis (linker-spaced) (C); purchased AcroBio (Acro Biosystems) GA3-H5129
Protocol: The epitope binning assay was done in a sandwich format on the high-throughput SPR-based Carterra LSA unit (CarterraBio, Salt Lake City, Utah). First, the purified antibodies were diluted to 10 μg/ml concentration in 10 mM NaOAc (pH 5.0) and then were covalently coupled via amine group to HC200M chip activated by EDC and S-NHS to immobilize antibodies to different positions of a 384-spot array. One hundred thirty-eight binning cycles were run on the array of immobilized antibodies. In each cycle, first, human Gal3 (AcroBio GA3-H5129) was injected over the entire array to bind to different antibodies (primary antibody), followed by one antibody (secondary antibody) selected among the panel of 150 anti-GAL3 antibodies tested. At the end of each cycle, the array was regenerated by 10 mM Glycine (pH 2.0) to remove bound antigen and secondary antibody from the array. The data analysis was done using the Epitope software by CarterraBio.

T3 sequence (P17931 whole entry): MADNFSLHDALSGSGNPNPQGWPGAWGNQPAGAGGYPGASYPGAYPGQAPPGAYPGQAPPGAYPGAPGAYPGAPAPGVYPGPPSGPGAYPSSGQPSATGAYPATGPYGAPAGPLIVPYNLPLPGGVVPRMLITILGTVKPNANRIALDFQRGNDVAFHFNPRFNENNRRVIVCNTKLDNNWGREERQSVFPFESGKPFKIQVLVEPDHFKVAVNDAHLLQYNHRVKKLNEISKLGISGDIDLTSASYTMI

binding to Gal3 peptide 6 (SEQ ID NO: 8) (Human Gal3 peptides [1]): bound | binding to Gal3 peptide 6 (amino acids 51-70, SEQ ID NO: 8) (hGal3 peptide): bound
B1: 2D10.2B2: anti-Gal3 antibody (antibody)
heavy: QVQLQQSGPELVKPGASVKISCKASGYTFTDYYINWVKQRPGQGLEWIGWIYPGSNDTKYNEKFKGKATLTVDTSSSTAYMQLGSLTSEDSAVYFCANYFGCSGWFFDVWGTGTTVTVSSAKTTPPSVYPLAPVCGDTTGSSVTLGCLVKGYFPEPVTLTWNSGSLSSGVHTFPAVLQSDLYTLSSSVTVTSSTWPSQSITCNVAHPASSTKVDKKIEPRGPTIKPCPPCKCPAPNAAGGPSVFIFPPKIKDVLMISLSPIVTCVVVDVSEDDPDVQISWFVNNVEVHTAQTQTHREDYNSTLRVVSALPIQHQDWMSGKEFKCKVNNKDLGAPIERTISKPKGSVRAPQVYVLPPPEEEMTKKQVTLTCMVTDFMPEDIYVEWTNNGKTELNYKNTEPVLDSDGSYFMYSKLRVEKKNWVERNSYSCSVVHEGLHNHHTTKSFSRTPGK
light: DIVMTQAAFSNPVTLGTSASISCRSSKSLLHSDGITYLYWYLQRPGQSPQLLIYRMSNLASGVPDRFSGSGSGTDFTLRISRVEAEDVGVYYCAQMIEFPLTFGAGTILELKRADVAPTVSIFPPSSEQLTSGGASVVCFLNNFYPKDINVKWKIDGSERQNGVLNSWTDQDSKDSTYSMSSTLTLTKDEYERHNSYTCEATHKTSTSPIVKSFNRNEC
modifications: 2D10.2B2 heavy chain peptide sequence; 2D10.2B2 light chain peptide sequence
notes: anti-Gal3 antibody

binding to Gal3 peptide 2 (SEQ ID NO: 4) (Human Gal3 peptides [1]): bound | binding to Gal3 peptide 3 (SEQ ID NO: 5) (Human Gal3 peptides [1]): bound | binding to Gal3 peptide 17 (SEQ ID NO: 19) (Human Gal3 peptides [1]): bound | binding to Gal3 peptide 7 (amino acids 61-80, SEQ ID NO: 9) (hGal3 peptide): bound
B2: 7D8.2D8: anti-Gal3 antibody (antibody)
heavy: EVQLVESGGGLVKPGGSLKLSCAASGFTFSSYAMSWVRQTPEKRLEWVATISDGGIYTYYPDNVKGRFTISRDNAKNNLFLQMSHLKSEDTAMYYCVRDGGYWGQGTTLTVSSAKTTPPSVYPLAPVCGDTTGSSVTLGCLVKGYFPEPVTLTWNSGSLSSGVHTFPAVLQSDLYTLSSSVTVTSSTWPSQSITCNVAHPASSTKVDKKIEPRGPTIKPCPPCKCPAPNAAGGPSVFIFPPKIKDVLMISLSPIVTCVVVDVSEDDPDVQISWFVNNVEVHTAQTQTHREDYNSTLRVVSALPIQHQDWMSGKEFKCKVNNKDLGAPIERTISKPKGSVRAPQVYVLPPPEEEMTKKQVTLTCMVTDFMPEDIYVEWTNNGKTELNYKNTEPVLDSDGSYFMYSKLRVEKKNWVERNSYSCSVVHEGLHNHHTTKSFSRTPGK
light: DVLMTQTPLSLPVSLGDQASISCRSSQSIVHSNGNTYLEWYLQKPGQSPKLLIYKVSNRFSGVPDRFSGSGSGTDFTLKISRVEAEDLGVYYCFQGSHVPLTFGAGTKLELKRADVAPTVSIFPPSSEQLTSGGASVVCFLNNFYPKDINVKWKIDGSERQNGVLNSWTDQDSKDSTYSMSSTLTLTKDEYERHNSYTCEATHKTSTSPIVKSFNRNEC
modifications: 7D8.2D8 heavy chain peptide sequence; 7D8.2D8 light chain peptide sequence
notes: anti-Gal3 antibody

binding to Gal3 peptide 2 (SEQ ID NO: 4) (Human Gal3 peptides [1]): bound | binding to Gal3 peptide 3 (SEQ ID NO: 5) (Human Gal3 peptides [1]): bound | binding to Gal3 peptide 4 (SEQ ID NO: 6) (Human Gal3 peptides [1]): bound | binding to Gal3 peptide 7 (amino acids 61-80, SEQ ID NO: 9) (hGal3 peptide): bound
B3: 15F10.2D6: anti-Gal3 antibody (antibody)
heavy: EVQLVESGGGLVKPGGSLKLSCAASGFAFSSYAMSWVRQTPEKRLEWVATISDGGVYTYYTDHVKGRFTISRDNAEDNLYLQMSHLKSEDTAMYYCVRDGGYWGQGTTLTVSSAKTTPPSVYPLAPVCGDTTGSSVTLGCLVKGYFPEPVTLTWNSGSLSSGVHTFPAVLQSDLYTLSSSVTVTSSTWPSQSITCNVAHPASSTKVDKKIEPRGPTIKPCPPCKCPAPNAAGGPSVFIFPPKIKDVLMISLSPIVTCVVVDVSEDDPDVQISWFVNNVEVHTAQTQTHREDYNSTLRVVSALPIQHQDWMSGKEFKCKVNNKDLGAPIERTISKPKGSVRAPQVYVLPPPEEEMTKKQVTLTCMVTDFMPEDIYVEWTNNGKTELNYKNTEPVLDSDGSYFMYSKLRVEKKNWVERNSYSCSVVHEGLHNHHTTKSFSRTPGK
light: DVLMTQTPLSLPVSLGDQASISCRSSQSIVHNNGNTYLEWYLQKPGQSPKLLIYKVSNRFSGVPDRFSGSGSGTDFTLKISRVEAEDLGVYYCFQGSHVPLTFGGGTKLELKRADVAPTVSIFPPSSEQLTSGGASVVCFLNNFYPKDINVKWKIDGSERQNGVLNSWTDQDSKDSTYSMSSTLTLTKDEYERHNSYTCEATHKTSTSPIVKSFNRNEC
modifications: 15F10.2D6 heavy chain peptide sequence; 15F10.2D6 light chain peptide sequence
notes: anti-Gal3 antibody

binding to any of the tested Gal3 peptides (Human Gal3 peptides [2]): not found to bind | binding to hGAL3 when immobilized on HC200M chip (human Gal3): not bind
B4: 847.4D3: anti-Gal3 antibody (antibody, V domains shown)
VH: EVQLVESGGGLVKPGGSLKLSCAASGFTFSSYAMSWVRQTPEKRLEWVASISSGDSPYYPDSVKGRFTISRDNARNILYLQMSSLRSEDTAMYYCTRFTTVVEMDYWGQGTSVTVSS
VL: DVVMTQTPKFLPITAEDRVTITCKASQSVSNEVAWYQQKPGQSPKLLIYYASNRYTGVPDRFTGSGSGTDFTFTIRSVQLEDLAVYFCQQHYSSPWTFGGGTKLEIK

binding to any of the tested Gal3 peptides (Human Gal3 peptides [2]): not found to bind | binding to hGAL3 when immobilized on HC200M chip (human Gal3): not bind
B5: 847.2B8: anti-Gal3 antibody (antibody, V domains shown)
VH: QVQLKQSGPGLVQPSQSLSITCTVSGFSLINYGVHWVRQSPGKGLEWLGVIWSGGSTDYNAAFISRLSISKDNSKSQVFFKMNSLQADDTAIYYCARIYYYGRGYAMDYWGQGTSVTVSS
VL: QILLSQSPAILSASPGEKVTMTCRASSSVTYMYWYQQKPGSSPQPWIYATSNLASGVPARFSGSGSGTSYSLTISRVEAEDAATYYCQQWSSNPLTFGAGTKLELK

binding to any of the tested Gal3 peptides (Human Gal3 peptides [2]): not found to bind | epitope bin (mutual competitive binding for Gal3) (human Gal3): CRD
B6: 847.11D6: anti-Gal3 antibody (antibody, V domains shown)
VH: EVKLQQSGPELMKPGTSMKISCKASGYSFTGYTMNWVKQSHGKNLEWIGLINPYNGGTNYNQKFRGKATLSVDKSSNTAYMELLSLTSEDSAVYYCARKDDYYGSSPYALDYWGQGTSVTVSS
VL: DIVMTQSPASLAVSLGQRATISCRASESVENHVNSFMHWFQQKPGQPPKLLIYRASNLQSGIPARFSGSGSRTDFTLTINPVEADDVATYYCQQNNEVPYTFGGGTKLEIK

binding to any of the tested Gal3 peptides (Human Gal3 peptides [2]): not found to bind | binding to hGAL3 when immobilized on HC200M chip (human Gal3): not bind
B7: 849.4F12: anti-Gal3 antibody (antibody, V domains shown)
VH: QVQLKESGPGILQPSQTLSLTCSFSGFSLSTFGMGVGWIRQPSGKGLEWLAHIWWDDDKHYNPALKSRLTISKDTSKNQVFLRIANVDTADNATYYCARIDYGDYVGFAYWGQGTLVTVSA
VL: DILLTQSPSSMSVSLGDTVSITCHASQGINSNIGWLQQKPGKSFKGLIYHGTNLEDGVPSRFSGSGSGADYSLTISSLESEDFADYYCVQYDQFPWTFGGGTKLEIK
